The results in this text go back to paper PMC11461981 (Scientific Reports, 2024).

Like-named read-outs stand apart in the source and are kept apart here.

The target of one test is 14-3-3φ (Arabidopsis thaliana, UniProt P19456+P46077). It is filed as binding.
Test [1] concerns the target FAM-labeled phosphopeptide derived from C-terminal AHA2 (FAM-TPSHYpTV) (Arabidopsis thaliana). Description: fluorescence polarisation.
For test [2] the target is unchanged. As to the kind of experiment: fluorescence polarisation. The source holds these as a separate data set.
For test [3] the target is unchanged. As to the kind of experiment: fluorescence polarisation. The source holds these as a separate data set.
Test [4] shares this target. As to the kind of experiment: fluorescence polarisation. This is another data set of the same source.

Chain of 14-3-3φ (P46077 whole entry, other chains not shown): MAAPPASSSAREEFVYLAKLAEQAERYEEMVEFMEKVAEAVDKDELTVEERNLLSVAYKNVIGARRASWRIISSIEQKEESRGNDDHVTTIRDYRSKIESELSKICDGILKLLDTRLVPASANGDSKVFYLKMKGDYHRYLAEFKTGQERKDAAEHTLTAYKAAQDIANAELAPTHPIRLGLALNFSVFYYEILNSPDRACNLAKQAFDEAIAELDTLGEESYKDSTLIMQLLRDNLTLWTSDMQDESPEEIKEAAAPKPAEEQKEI

Turning to `C=CC(C)(C)OC[C@H]1O[C@H](O[C@@H]2C3=C([C@H](C)COC(C)=O)C[C@H](O)[C@]3(C)/C=C3/[C@@H](COC)CC[C@H]3[C@@H](C)[C@H]2O)[C@H](O)[C@@H](OC(C)=O)[C@@H]1O` [FC-A, Fusicoccin-A], binding on 14-3-3φ was characterised by a dissociation constant (Kd) of 150 ± 30 nM.

Regarding “recombinant Arabidopsis thaliana His-14-3-3φ (from UniProt P46077 1-267) (natural protein)”, the Kd in test [1] was determined as 150 nM; in test [2], 530 nM; in test [3] it was 890 nM; in test [4], 160 nM.
